Assay results from patent publication US20250019439A1 (Adimab, published 2025).

Assays:
ADI-22523 Fab = target: T1, ADI-22523 Fab; experiment: BLI; tip anti-ID IgG, solution ADI-22523 Fab
T1 construct: anti-CD3 Fab by papain digestion of the IgG
Method: (§1) ForteBio affinity measurements were performed generally as previously described (Estep et al., MAbs. 2013 5(2):270-8). Briefly, ForteBio affinity measurements were performed by loading antibody IgG or Fabs on-line onto AHC sensors. Sensors were equilibrated off-line in assay buffer for 30 minutes and then monitored on-line for 60 seconds for baseline establishment. For avid binding measurement, sensors with loaded antibodies were exposed to IgG or Fab solutions for 3 minutes, afterwards they were transferred to assay buffer for 3 minutes for off-rate measurement. Kinetics data were fit using a 1:1 binding model in the data analysis software provided by ForteBio to obtain equilibrium dissociation constant (KD=koff/kₒₙ) values. In each column, tip-immobilized antibodies are listed first and solution antibodies second.

ADI-67450 = target: T2, ADI-67450; experiment: SPR Carterra avidity, yeast anti-ID
T2 construct: anti-CD3 antibody made in CHO cells, captured by anti-human Fc
Method: (§2) Kinetic analysis was conducted at 25° C. in an HBSTE running buffer system (Carterra Cat #3630) using a Carterra LSA (Carterra USA, Salt Lake City, UT). The sample compartment was maintained at 20° C. for the duration of each experiment.
(§3) For antibody capture experiments, a goat anti-human Fc antibody (Jackson ImmunoResearch) was covalently coupled to an HC30M sensor chip surface via standard amine coupling (1:1 EDC:NHS) and then blocked with ethanolamine (1.0 M, pH 8.5). Covalent coupling steps were performed in 25 mM MES buffer (Carterra, Cat #3625) plus 0.05% Tween20. The anti-CD3 antibodies (100 nM in running buffer) were flowed over discrete regions of interest on the chip surface for 5 minutes. […] Dissociation of the anti-idiotype antibodies was monitored for 300s. Several blank buffer samples were injected over the entire chip surface at the start of each non-regenerative kinetic cycle. The preceding blank buffer injection was used for blank surface subtraction. At the end of each non-regenerative kinetic cycle, all surfaces were regenerated via two 30s injections of 10 mM glycine, pH 1.7.
(§4) For data processing and fitting, sensorgrams were double reference subtracted with a baseline drift correction of 4 RU. Sensorgrams were y-aligned and baseline corrected, filtered and cropped to include only the association and dissociation steps. Data was fitted to a 1:1 binding model using Carterra Kinetics Data Analysis software version 1.7.1.3055.

ADI-76360 = target: T3, ADI-76360; experiment: SPR Carterra avidity, yeast anti-ID
T3 construct: anti-CD3 antibody made in CHO cells, captured by anti-human Fc
T3 sequence (VH, as listed by the source, chain 1 of 2): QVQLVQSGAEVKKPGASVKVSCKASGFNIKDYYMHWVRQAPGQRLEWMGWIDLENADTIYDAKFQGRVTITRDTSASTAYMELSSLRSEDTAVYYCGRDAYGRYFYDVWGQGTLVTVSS
T3 sequence (VL, as listed by the source, chain 2 of 2): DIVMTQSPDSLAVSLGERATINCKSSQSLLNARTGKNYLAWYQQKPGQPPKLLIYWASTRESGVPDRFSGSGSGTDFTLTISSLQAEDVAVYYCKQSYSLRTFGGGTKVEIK
Method: as §2, §3, §4

ADI-50024 = target: T4, ADI-50024; experiment: SPR Carterra avidity, yeast anti-ID
T4 construct: anti-CD3 antibody made in CHO cells, captured by anti-human Fc
T4 sequence (VH, as listed by the source limits assumed, chain 1 of 2): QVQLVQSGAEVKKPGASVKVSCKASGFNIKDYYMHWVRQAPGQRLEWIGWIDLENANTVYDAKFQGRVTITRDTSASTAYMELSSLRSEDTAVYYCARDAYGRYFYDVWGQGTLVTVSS
T4 sequence (VL, as listed by the source limits assumed, chain 2 of 2): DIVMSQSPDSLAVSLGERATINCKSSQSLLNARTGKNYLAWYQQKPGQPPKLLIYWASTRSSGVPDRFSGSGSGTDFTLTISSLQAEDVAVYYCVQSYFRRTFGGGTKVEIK
Method: as §2, §3, §4

ADI-26916 IgG = target: T5, ADI-26916 IgG; experiment: SPR Carterra avidity, yeast anti-ID
T5 construct: anti-CD3 IgG
T5 sequence (VH, as listed by the source, chain 1 of 2): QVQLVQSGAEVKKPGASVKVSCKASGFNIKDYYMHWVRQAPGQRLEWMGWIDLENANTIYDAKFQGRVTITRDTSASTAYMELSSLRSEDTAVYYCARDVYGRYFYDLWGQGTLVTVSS
T5 sequence (VL, as listed by the source, chain 2 of 2): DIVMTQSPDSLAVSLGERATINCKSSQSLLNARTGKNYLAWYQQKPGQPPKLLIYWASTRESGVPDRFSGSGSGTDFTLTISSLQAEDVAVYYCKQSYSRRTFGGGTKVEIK
Method: as §2, §3, §4

ADI-67447 = target: T6, ADI-67447; experiment: SPR Carterra avidity, yeast anti-ID
T6 construct: anti-CD3 antibody made in CHO cells, captured by anti-human Fc
T6 sequence (VH, as listed by the source limits assumed, chain 1 of 2): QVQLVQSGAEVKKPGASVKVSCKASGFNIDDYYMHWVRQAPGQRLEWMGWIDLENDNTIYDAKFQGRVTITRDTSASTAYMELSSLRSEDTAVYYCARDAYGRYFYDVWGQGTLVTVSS
Method: as §2, §3, §4

ADI-26913 IgG = target: T7, ADI-26913 IgG; experiment: SPR Carterra avidity, yeast anti-ID
T7 construct: anti-CD3 IgG
Method: as §2, §3, §4

ADI-76362 = target: T8, ADI-76362; experiment: SPR Carterra avidity, yeast anti-ID
T8 construct: anti-CD3 antibody made in CHO cells, captured by anti-human Fc
Method: as §2, §3, §4

ADI-76359 = target: T9, ADI-76359; experiment: SPR Carterra avidity, yeast anti-ID
T9 construct: anti-CD3 antibody made in CHO cells, captured by anti-human Fc
T9 sequence (VH, as listed by the source, chain 1 of 2): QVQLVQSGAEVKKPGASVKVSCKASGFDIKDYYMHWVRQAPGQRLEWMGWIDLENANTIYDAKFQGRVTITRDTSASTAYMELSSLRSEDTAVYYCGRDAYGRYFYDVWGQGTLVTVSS
Method: as §2, §3, §4

ADI-48576 = target: T10, ADI-48576; experiment: SPR Carterra avidity, yeast anti-ID
T10 construct: pH-dependent anti-CD3 antibody made in CHO cells
Method: as §2, §3, §4

ADI-48592 = target: T11, ADI-48592; experiment: SPR Carterra avidity, yeast anti-ID
T11 construct: pH-dependent anti-CD3 antibody made in CHO cells
T11 sequence (VH, as listed by the source, chain 1 of 2): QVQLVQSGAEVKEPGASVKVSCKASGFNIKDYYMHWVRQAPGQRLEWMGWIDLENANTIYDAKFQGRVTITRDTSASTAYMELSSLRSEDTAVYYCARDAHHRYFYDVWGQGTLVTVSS
T11 sequence (VL, as listed by the source, chain 2 of 2): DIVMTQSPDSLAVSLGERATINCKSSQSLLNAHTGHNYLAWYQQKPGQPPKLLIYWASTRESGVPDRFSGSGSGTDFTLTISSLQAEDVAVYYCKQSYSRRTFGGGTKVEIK
Method: as §2, §3, §4

ADI-74966 = target: T12, ADI-74966; experiment: SPR Carterra avidity, yeast anti-ID
T12 construct: pH-dependent anti-CD3 antibody made in CHO cells
T12 sequence (VH, as listed by the source, chain 1 of 2): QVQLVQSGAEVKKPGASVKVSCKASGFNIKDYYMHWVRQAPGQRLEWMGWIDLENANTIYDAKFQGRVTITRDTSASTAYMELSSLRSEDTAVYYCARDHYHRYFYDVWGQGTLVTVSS
T12 sequence (VL, as listed by the source, chain 2 of 2): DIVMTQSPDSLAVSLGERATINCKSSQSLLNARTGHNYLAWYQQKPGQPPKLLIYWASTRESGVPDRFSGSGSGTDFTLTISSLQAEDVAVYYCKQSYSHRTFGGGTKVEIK
Method: as §2, §3, §4

ADI-26919 = target: T13, ADI-26919; experiment: SPR Carterra avidity, yeast anti-ID
T13 construct: anti-CD3 antibody made in CHO cells, captured by anti-human Fc
Method: as §2, §3, §4

ADI-76361 = target: T14, ADI-76361; experiment: SPR Carterra avidity, yeast anti-ID
T14 construct: anti-CD3 antibody made in CHO cells, captured by anti-human Fc
T14 sequence (VH, as listed by the source, chain 1 of 2): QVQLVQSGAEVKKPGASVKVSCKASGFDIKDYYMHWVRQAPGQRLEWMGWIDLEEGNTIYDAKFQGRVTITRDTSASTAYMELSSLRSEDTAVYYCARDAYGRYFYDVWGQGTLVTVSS
Method: as §2, §3, §4

ADI-74965 = target: T15, ADI-74965; experiment: SPR Carterra avidity, yeast anti-ID
T15 construct: pH-dependent anti-CD3 antibody made in CHO cells
T15 sequence (VH, as listed by the source, chain 1 of 2): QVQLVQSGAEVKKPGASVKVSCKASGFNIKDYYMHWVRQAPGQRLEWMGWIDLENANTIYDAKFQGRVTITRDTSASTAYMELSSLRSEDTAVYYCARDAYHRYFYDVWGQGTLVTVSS
T15 sequence (VL, as listed by the source, chain 2 of 2): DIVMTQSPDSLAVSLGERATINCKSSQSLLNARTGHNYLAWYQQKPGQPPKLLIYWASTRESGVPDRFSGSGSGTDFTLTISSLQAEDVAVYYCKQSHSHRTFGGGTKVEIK
Method: as §2, §3, §4

ADI-48650 = target: T16, ADI-48650; experiment: SPR Carterra avidity, yeast anti-ID
T16 construct: pH-dependent anti-CD3 antibody made in CHO cells
Method: as §2, §3, §4

ADI-26943 = target: T17, ADI-26943; experiment: SPR Carterra avidity, yeast anti-ID
T17 construct: anti-CD3 antibody made in CHO cells, captured by anti-human Fc
Method: as §2, §3, §4

ADI-26924 = target: T18, ADI-26924; experiment: SPR Carterra avidity, yeast anti-ID
T18 construct: anti-CD3 antibody made in CHO cells, captured by anti-human Fc
Method: as §2, §3, §4

ADI-76358 = target: T19, ADI-76358; experiment: SPR Carterra avidity, yeast anti-ID
T19 construct: anti-CD3 antibody made in CHO cells, captured by anti-human Fc
T19 sequence (VH, as listed by the source, chain 1 of 2): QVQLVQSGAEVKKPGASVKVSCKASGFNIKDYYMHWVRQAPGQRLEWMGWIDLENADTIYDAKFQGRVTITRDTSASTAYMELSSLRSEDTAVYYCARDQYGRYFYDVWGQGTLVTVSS
Method: as §2, §3, §4

ADI-74968 = target: T20, ADI-74968; experiment: SPR Carterra avidity, yeast anti-ID
T20 construct: pH-dependent anti-CD3 antibody made in CHO cells
Method: as §2, §3, §4

ADI-26912 = target: T21, ADI-26912; experiment: SPR Carterra avidity, yeast anti-ID
T21 construct: anti-CD3 antibody made in CHO cells, captured by anti-human Fc
Method: as §2, §3, §4

ADI-74967 = target: T22, ADI-74967; experiment: SPR Carterra avidity, yeast anti-ID
T22 construct: pH-dependent anti-CD3 antibody made in CHO cells
T22 sequence (VL, as listed by the source, chain 2 of 2): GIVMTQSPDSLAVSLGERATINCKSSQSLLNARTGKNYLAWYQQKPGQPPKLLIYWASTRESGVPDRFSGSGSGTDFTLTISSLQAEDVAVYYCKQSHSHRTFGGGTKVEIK
Method: as §2, §3, §4

ADI-26909 = target: T23, ADI-26909; experiment: SPR Carterra, yeast anti-ID
T23 construct: anti-CD3 antibody made in CHO cells, captured by anti-human Fc
T23 sequence (VH, as listed by the source limits assumed, chain 1 of 2): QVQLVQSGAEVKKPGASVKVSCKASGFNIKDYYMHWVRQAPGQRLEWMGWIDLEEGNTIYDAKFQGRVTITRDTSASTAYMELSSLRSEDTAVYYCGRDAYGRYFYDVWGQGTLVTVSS
Method: as §2, §3, §4

ADI-48587 = target: T24, ADI-48587; experiment: SPR Carterra, yeast anti-ID
T24 construct: pH-dependent anti-CD3 antibody made in CHO cells
Method: as §2, §3, §4

CTL-62223 = target: T25, CTL-62223; experiment: SPR Carterra, yeast anti-ID
T25 construct: also called mosunetuzumab
Method: as §2, §3, §4

ADI-67445 = target: T26, ADI-67445; experiment: SPR Carterra, yeast anti-ID
T26 construct: anti-CD3 antibody made in CHO cells, captured by anti-human Fc
T26 sequence (VH, as listed by the source limits assumed, chain 1 of 2): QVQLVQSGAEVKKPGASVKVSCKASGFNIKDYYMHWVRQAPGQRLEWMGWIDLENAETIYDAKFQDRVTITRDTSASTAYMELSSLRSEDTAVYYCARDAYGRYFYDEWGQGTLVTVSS
Method: as §2, §3, §4

ADI-70326 = target: T27, ADI-70326; experiment: SPR Carterra, yeast anti-ID
T27 construct: anti-CD3 antibody made in CHO cells, captured by anti-human Fc
T27 sequence (VH, as listed by the source limits assumed, chain 1 of 2): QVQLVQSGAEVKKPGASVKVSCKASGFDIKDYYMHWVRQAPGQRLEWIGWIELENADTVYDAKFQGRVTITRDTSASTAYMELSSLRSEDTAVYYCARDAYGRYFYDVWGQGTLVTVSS
Method: as §2, §3, §4

ADI-70327 = target: T28, ADI-70327; experiment: SPR Carterra, yeast anti-ID
T28 construct: anti-CD3 antibody made in CHO cells, captured by anti-human Fc
Method: as §2, §3, §4

ADI-70330 = target: T29, ADI-70330; experiment: SPR Carterra, yeast anti-ID
T29 construct: anti-CD3 antibody made in CHO cells, captured by anti-human Fc
Method: as §2, §3, §4

ADI-26915 = target: T30, ADI-26915; experiment: SPR Carterra, yeast anti-ID
T30 construct: anti-CD3 antibody made in CHO cells, captured by anti-human Fc
Method: as §2, §3, §4

CTL-62240 = target: T31, CTL-62240; experiment: SPR Carterra, yeast anti-ID
T31 construct: also called ONO-4685
Method: as §2, §3, §4

CTL-62227 = target: T32, CTL-62227; experiment: SPR Carterra, yeast anti-ID
T32 construct: also called odronextamab
T32 sequence (VH, as listed by the source, chain 1 of 2): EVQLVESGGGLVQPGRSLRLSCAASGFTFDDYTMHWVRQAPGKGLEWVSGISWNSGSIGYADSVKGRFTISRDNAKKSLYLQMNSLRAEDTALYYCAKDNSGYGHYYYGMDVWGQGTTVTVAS
T32 sequence (VL, as listed by the source, chain 2 of 2): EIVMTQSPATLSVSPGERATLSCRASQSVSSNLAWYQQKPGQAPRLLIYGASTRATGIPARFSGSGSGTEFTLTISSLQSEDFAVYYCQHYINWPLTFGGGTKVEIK
Method: as §2, §3, §4

CTL-62228 = target: T33, CTL-62228; experiment: SPR Carterra, yeast anti-ID
T33 construct: also called glofitamab
Method: as §2, §3, §4

ADI-26921 IgG = target: T34, ADI-26921 IgG; experiment: SPR Carterra, yeast anti-ID
T34 construct: anti-CD3 IgG
Method: as §2, §3, §4

ADI-22523 IgG = target: T35, ADI-22523 IgG; experiment: BLI; tip anti-ID IgG, solution ADI-22523 IgG
T35 construct: anti-CD3 IgG
Method: as §1

ADI-26920 IgG = target: T36, ADI-26920 IgG; experiment: SPR Carterra avidity, yeast anti-ID, *koff limit
T36 construct: anti-CD3 IgG
Method: as §2, §3, §4

ADI-26906 IgG = target: T37, ADI-26906 IgG; experiment: SPR Carterra avidity, yeast anti-ID, *koff limit
T37 construct: anti-CD3 IgG
Method: as §2, §3, §4

ADI-76357 = target: T38, ADI-76357; experiment: SPR Carterra avidity, yeast anti-ID, *koff limit
T38 construct: anti-CD3 antibody made in CHO cells, captured by anti-human Fc
T38 sequence (VH, as listed by the source, chain 1 of 2): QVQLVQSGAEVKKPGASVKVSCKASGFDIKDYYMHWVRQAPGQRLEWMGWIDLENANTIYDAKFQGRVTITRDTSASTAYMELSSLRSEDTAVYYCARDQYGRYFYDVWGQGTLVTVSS
Method: as §2, §3, §4

B1: ADI-34142 (antibody, V domains shown)
VH: EVQLLESGGGLVQPGGSLRLSCAASGFTFSSYAMSWVRQAPGKGLEWVSTISGSGGSTYYADSVKGRFTISRDNSKNTLYLQMNSLRAEDTAVYYCARLGGRRGSGSSYYYYYGMDVWGQGTTVTVSS
VL: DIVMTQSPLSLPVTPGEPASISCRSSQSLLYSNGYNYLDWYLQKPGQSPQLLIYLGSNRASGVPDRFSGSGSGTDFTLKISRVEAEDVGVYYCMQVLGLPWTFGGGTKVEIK
notes: anti-ID IgG
Which results are given for B1?
Kd (ADI-22523 Fab): 14.7 nM; binding result (ADI-67450): binds; Kd (ADI-76360): 36 nM; binding result (ADI-50024): binds; Kd (ADI-26916 IgG): 21 nM; Kd (ADI-67447): 21 nM; Kd (ADI-26913 IgG): 11 nM; binding result (ADI-76362): binds; Kd (ADI-76359): 7.3 nM; Kd (ADI-48576): 76 nM; binding result (ADI-48592): binds; binding result (ADI-74966): binds; Kd (ADI-26919): 18 nM; binding result (ADI-76361): binds; binding result (ADI-74965): binds; binding result (ADI-48650): binds; Kd (ADI-26943): 6.5 nM; Kd (ADI-26924): 32 nM; binding result (ADI-76358): binds; Kd (ADI-74968): 45 nM; binding result (ADI-26912): binds; binding result (ADI-74967): binds; binding result (ADI-26909): no binding (tested: up to 200 nM); binding result (ADI-48587): no binding (tested: up to 200 nM); binding result (CTL-62223): no binding (tested: up to 200 nM); binding result (ADI-67445): no binding (tested: up to 200 nM); binding result (ADI-70326): no binding (tested: up to 200 nM); binding result (ADI-70327): no binding (tested: up to 200 nM); binding result (ADI-70330): no binding (tested: up to 200 nM); binding result (ADI-26915): no binding (tested: up to 200 nM); binding result (CTL-62240): no binding (tested: up to 200 nM); binding result (CTL-62227): no binding (tested: up to 200 nM); binding result (CTL-62228): no binding (tested: up to 200 nM); binding result (ADI-26921 IgG): no binding (tested: up to 200 nM); Kd (ADI-22523 IgG): 4.11 nM; Kd (ADI-26920 IgG): 6.1 nM; Kd (ADI-26906 IgG): 12 nM; Kd (ADI-76357): 5.7 nM
